Measured values reported in patent US5516656A, “Production of a new hirudin analog and anticoagulant pharmaceutical composition containing the same” (Nippon Mining Company, Limited, priority 1990, dated 1996).
Substitutions are numbered along the chain they refer to.

B1: HV1C3: hirudin analog having the hirudin HV1 amino acid sequence up to the 52nd amino acid and thereafter substituted with the sequence of HV3 (protein)
chain: VVYTDCTESGQNLCLCEGSNVCGQGNKCILGSDGEKNQCVTGEGTPKPQSHNQGDFEPIPEDAYDE
B2: HV3: natural hirudin variant of 66 amino acids, produced here by secretion from E. coli (protein)
chain: B1 chain with V1I, V2T, Q24K, D33Q, E35K, K36D

Experiments:
[1] = target: T1, Thrombin (Homo sapiens, UniProt P00734); experiment: Inhibitory action of hirudin against thrombin induced death; format: in vivo, mice; set-up: Thrombin (10 NIH unit/10 g) was administered intravenously to male mice; settings: for Score: score 0 normal, 1 disappearance of roll over reflection, 2 death within 20 minutes
Procedure: Thrombin (10 NIH unit/10 g) was administered intravenously to male mice (20-25 g), without anesthesia, and the anti-thrombin activity of the tested compound was evaluated by observing the disappearance of roll over reflection and death as indexes. All the tested compounds were dissolved in saline, and 0.05 ml/10 g were administered intravenously 5 min prior to the thrombin injection.

[2] = target: T1, Thrombin; experiment: anti-thrombin activity, chromogenic substrate chromozyme TH; format: biochemical; set-up: purchased Sigma; settings: purified by C4 reverse phase HPLC
Procedure: Precipitated cells of each sample were suspended in 1 ml of 50 mM Tris-HCl (pH7.5) containing 25% sucrose and 1 mM EDTA, followed by incubation at room temperature for 10 minutes. After collecting the cells by centrifugation at 6,000×g for 10 minutes, the cells were suspended in 1 ml of cold water to release the substances in the periplasmic space by osmotic shock. Cells were removed from the periplasmic fraction by centrifugation at 6,000×g for 10 minutes. The amount of secreted and periplasmically-accumulated hirudin was determined by measuring the anti-thrombin activity in the supernatant. The antithrombin activity is based on quantitative measurement of the color intensity generated by thrombin's hydrolytic activity on the synthetic chromogenic substrate chromozyme TH (Tocylglycil-prolylarginine-4-nitroanilideacetate, Boeringer-Mannheim) and hirudin's inhibitory activity against thrombin, which will repress color generation.
This reaction was carried out as follows. […]
Both the substrate and chromozymeTH were added to a final concentration of 200 μM to measure the release of p-nitroanilide by the increase of absorbance at 405 nm of the solution per 1 minute, and the anti-thrombin activity (ATU) was calculated.

[3] = Prolongation of bleeding time (tail vein puncture wound); format: in vivo, mice; settings: for Bleeding time: wound 5 minutes after administration
Procedure: Samples were injected into male mice (20-25 g) under anesthesia using sodium pentobarbital (40 mg/kg i.p.) via their tail vein. A puncture wound was made by inserting a 21 G needle (outer diameter 0.85 mm) into the other side of the tail vein 5 minutes after the administration of the test compounds, and the bleeding time of the wound was measured. A filter paper was put on the wound, with changes every 15 seconds. Bleeding time is defined as the time required until no red spot is observed on the filter paper.

| Molecule | Score ([1]; 200 μg/10 g weight i.v. 5 min prior to thrombin 10 NIH unit/10 g) | Score ([1]; 500 μg/10 g weight i.v. 5 min prior to thrombin 10 NIH unit/10 g) | anti-thrombin activity (specific / relative activity) of purified product [2] | Score ([1]; 20 μg/10 g weight i.v. 5 min prior to thrombin 10 NIH unit/10 g) | Score ([1]; 50 μg/10 g weight i.v. 5 min prior to thrombin 10 NIH unit/10 g) | Score ([1]; 100 μg/10 g weight i.v. 5 min prior to thrombin 10 NIH unit/10 g) | inhibitory activity compared with hirudin HV1 in thrombin induced death ([1]; in vivo, mice, relative to HV1) | Bleeding time ([3]; 50 μg/10 g weight i.v.) | Bleeding time ([3]; 100 μg/10 g weight i.v.) | Bleeding time ([3]; 200 μg/10 g weight i.v.) | bleeding tendency compared with hirudin HV1 ([3]; mice, in words) |
| --- | --- | --- | --- | --- | --- | --- | --- | --- | --- | --- | --- |
| HV1: hirudin variant 1, natural anti-coagulation peptide of Hirudo medicinalis, produced here by secretion from E. coli [reference compound] | 0.6 | 0.4 |  |  |  |  |  |  |  |  |  |
| B1 |  |  | 11,250 ATU/mg | 1.2 | 0.6 | 0.4 | 4-5 times | 264.0 ± 17.6 s | 291.0 ± 30.2 s | 369.0 ± 34.9 s | less bleeding than hirudin HV1 |
| B2 |  |  | 8139 ATU/mg |  |  |  |  |  |  |  |  |
